Test results from publication PMC7092852 (Biochemical and Biophysical Research Communications, 2005).

Target: the molecule itself
Test: SEC

B1: 2-helix protein (native single chain NHR + CHR of syncytin, amino acids 349-445) (domain or fragment)
chain: not shown
- stoichiometry N: 3
